Measured values published in the supplement of paper PMC9732359.
± gives the uncertainty stated by the source.

Experiment: protein stability index of a GFP-peptide fusion (yeast GPS) (PSI 1-4); higher = more stable; sorted into four equal gates, so the index is relative within each strain
Outline: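 Peptides tiling yeast proteins in 17-residue segments were fused downstream of GFP, with Cherry expressed from the same plasmid. As a pooled library in yeast, mid-log cultures grown in leucine-free medium were sorted into four equal gates by GFP/Cherry fluorescence ratio. Gate plasmids were PCR-amplified and Illumina-sequenced, and barcodes linked reads to strains. Each peptide received a protein stability index equal to the sum of each gate's read frequency times its gate number.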

EAMMLKEEGLQQFNLHE [MED1]
protein stability index (doa10∆): 2.97 ± 0.16 | protein stability index (pdr5∆): 3.26 ± 0.15 | protein stability index (san1∆): 3.17 ± 0.12 | protein stability index (ubr1∆): 2.61 ± 0.12

MQKQHEMKTQAAELQEK [SNF6]
protein stability index (doa10∆): 1.79 ± 0.14 | protein stability index (pdr5∆): 3 ± 0.17 | protein stability index (san1∆): 3.05 ± 0.055 | protein stability index (ubr1∆): 2.54 ± 0.063

TEKLKISPESVFGTLGE [SMC3]
protein stability index (doa10∆): 1.99 ± 0.087 | protein stability index (pdr5∆): 2.34 ± 0.066 | protein stability index (san1∆): 2.09 ± 0.095 | protein stability index (ubr1∆): 1.99 ± 0.032

ARKHKLKTLVQGPRSYF [RPS27A]
protein stability index (doa10∆): 3.15 ± 0.14 | protein stability index (pdr5∆): 3.34 ± 0.19 | protein stability index (san1∆): 2.27 ± 0.14 | protein stability index (ubr1∆): 2.72 ± 0.19

DDENNPSHYPHPYEYEI [RRP6]
protein stability index (doa10∆): 3.03 ± 0.064 | protein stability index (pdr5∆): 2.89 ± 0.063 | protein stability index (san1∆): 2.74 ± 0.054 | protein stability index (ubr1∆): 2.89 ± 0.029

MKLSMPPEVTSSNCHVR [POP1]
protein stability index (doa10∆): 2.4 ± 0.066 | protein stability index (pdr5∆): 2.6 ± 0.075 | protein stability index (san1∆): 2.32 ± 0.076 | protein stability index (ubr1∆): 2.48 ± 0.042

SMRTIMKANPALYVLRE [PRP8]
protein stability index (pdr5∆): 1.91 ± 0.29 | protein stability index (ubr1∆): 1.37 ± 0.28

EITEKKNGESLEGEEIK [RPN1]
protein stability index (pdr5∆): 3.03 ± 0.3

MPNIELYLKVIPMDFIR [SSN2]
protein stability index (doa10∆): 2.22 ± 0.072 | protein stability index (pdr5∆): 2.14 ± 0.076 | protein stability index (san1∆): 1.95 ± 0.082 | protein stability index (ubr1∆): 2.54 ± 0.079

AQDEVFSLAFSPNRYWL [ASC1]
protein stability index (doa10∆): 2.78 ± 0.24 | protein stability index (pdr5∆): 2.75 ± 0.17 | protein stability index (san1∆): 2.54 ± 0.18 | protein stability index (ubr1∆): 2.38 ± 0.19

NNNGNPGTTSTGNNNNI [GAL11]
protein stability index (doa10∆): 3.18 ± 0.12 | protein stability index (pdr5∆): 3.34 ± 0.075 | protein stability index (san1∆): 3.18 ± 0.061 | protein stability index (ubr1∆): 3.23 ± 0.07

EKKLEDYCRILSDIETA [YGL172W/NUP49]
protein stability index (doa10∆): 1.75 ± 0.11 | protein stability index (pdr5∆): 3.14 ± 0.09 | protein stability index (san1∆): 2.67 ± 0.11 | protein stability index (ubr1∆): 2.55 ± 0.089

FTICLNDRNPRLNENKK [CSN12]
protein stability index (doa10∆): 3.03 ± 0.053 | protein stability index (pdr5∆): 3.21 ± 0.056 | protein stability index (san1∆): 3.11 ± 0.043 | protein stability index (ubr1∆): 3.06 ± 0.043

VIPIRRGYWGTNLGQPH [RPS2]
protein stability index (doa10∆): 2.04 ± 0.074 | protein stability index (pdr5∆): 1.67 ± 0.11 | protein stability index (san1∆): 1.91 ± 0.18 | protein stability index (ubr1∆): 1.79 ± 0.13

LLSSSNFEATKKSVLKQ [COR1]
protein stability index (doa10∆): 2.81 ± 0.29 | protein stability index (ubr1∆): 2.83 ± 0.28

KKIIKCDEHMGLSLAGL [PRE5]
protein stability index (doa10∆): 2.94 ± 0.079 | protein stability index (pdr5∆): 3.2 ± 0.076 | protein stability index (san1∆): 3.15 ± 0.075 | protein stability index (ubr1∆): 2.94 ± 0.076

KAIFPNTVDGDLLKLVH [FAS1]
protein stability index (doa10∆): 2.19 ± 0.17 | protein stability index (pdr5∆): 3.06 ± 0.14 | protein stability index (san1∆): 2.22 ± 0.14 | protein stability index (ubr1∆): 1.92 ± 0.05

QSKIDLTKKKNEEINKK [SEM1]
protein stability index (pdr5∆): 3.47 ± 0.24 | protein stability index (san1∆): 2.87 ± 0.14 | protein stability index (ubr1∆): 3.21 ± 0.076

GKALVHHYEECAERVKI [QCR6]
protein stability index (doa10∆): 3.47 ± 0.093 | protein stability index (pdr5∆): 3.28 ± 0.1 | protein stability index (san1∆): 3.25 ± 0.073 | protein stability index (ubr1∆): 3.39 ± 0.074

RVTNTTSTDFPGFSKDA [RPC40]
protein stability index (pdr5∆): 3.04 ± 0.21

MDALTLMKCCHEAYSII [RRP45]
protein stability index (doa10∆): 1.77 ± 0.063 | protein stability index (pdr5∆): 2.04 ± 0.071 | protein stability index (san1∆): 1.84 ± 0.099 | protein stability index (ubr1∆): 1.76 ± 0.12

SEISIIDATLKEELLRD [RRP45]
protein stability index (doa10∆): 2.44 ± 0.094 | protein stability index (pdr5∆): 2.22 ± 0.1 | protein stability index (san1∆): 2.3 ± 0.099 | protein stability index (ubr1∆): 2.83 ± 0.11

VMESGAKGCEVVVSGKL [RPS3]
protein stability index (doa10∆): 3.04 ± 0.23 | protein stability index (san1∆): 3 ± 0.24

NAIFLSSEQDYSTLKEL [YCG1]
protein stability index (doa10∆): 2.61 ± 0.078 | protein stability index (pdr5∆): 2.6 ± 0.11 | protein stability index (san1∆): 2.18 ± 0.18 | protein stability index (ubr1∆): 2.81 ± 0.094

QASDPSKKKKNIKKKDT [RPC53]
protein stability index (doa10∆): 3.26 ± 0.17 | protein stability index (pdr5∆): 3.5 ± 0.13 | protein stability index (san1∆): 3.2 ± 0.088 | protein stability index (ubr1∆): 3.3 ± 0.21

QPQETEEHHEEEPSRVD [RPT4]
protein stability index (doa10∆): 3.56 ± 0.064 | protein stability index (pdr5∆): 3.44 ± 0.1 | protein stability index (san1∆): 3.23 ± 0.074 | protein stability index (ubr1∆): 3.22 ± 0.086

YSLIRETNGYDPFSIYG [SNF5]
protein stability index (doa10∆): 1.23 ± 0.056 | protein stability index (pdr5∆): 1.31 ± 0.088 | protein stability index (san1∆): 1.15 ± 0.18 | protein stability index (ubr1∆): 1.06 ± 0.084

LAMVIIKEFVDDLKKDH [DSN1]
protein stability index (doa10∆): 2.74 ± 0.2 | protein stability index (pdr5∆): 2.92 ± 0.16 | protein stability index (san1∆): 2.88 ± 0.12 | protein stability index (ubr1∆): 2.85 ± 0.085

ASKKFGKICLILTRLNG [SSN2]
protein stability index (doa10∆): 1.99 ± 0.17 | protein stability index (pdr5∆): 2.14 ± 0.27
